# In article PMC9280689, “Resistance to Powdery Mildew in Qingke Involves the Accumulation of Aromatic Phenolamides Through Jasmonate-Mediated Activation of Defense-Related Genes” (Frontiers in Plant Science, 2022):
# Experiments:
# Experiment in all cases: purified protein
# purified protein [1] = substrate: CC(C)(COP(=O)(O)OP(=O)(O)OC[C@H]1O[C@@H](n2cnc3c(N)ncnc32)[C@H](O)[C@@H]1OP(=O)(O)O)[C@@H](O)C(=O)NCCC(=O)NCCSC(=O)/C=C/c1ccc(O)c(O)c1; settings: acyl donor, amine acceptor 100 μM (which amine not told), 10 mM MgCl2, Tris-HCl pH 7.4, 30 °C
# purified protein [2] = substrate: NCCCCN; settings: acyl acceptor, feruloyl-CoA 50 μM as donor, 10 mM MgCl2, Tris-HCl pH 7.4, 30 °C
# purified protein [3] = substrate: CC(C)(COP(=O)(O)OP(=O)(O)OC[C@H]1O[C@@H](n2cnc3c(N)ncnc32)[C@H](O)[C@@H]1OP(=O)(O)O)[C@@H](O)C(=O)NCCC(=O)NCCSC(=O)/C=C/c1ccc(O)cc1; settings: acyl donor, amine acceptor 100 μM (which amine not told), 10 mM MgCl2, Tris-HCl pH 7.4, 30 °C
# purified protein [4] = substrate: COc1cc(/C=C/C(=O)SCCNC(=O)CCNC(=O)[C@H](O)C(C)(C)COP(=O)(O)OP(=O)(O)OC[C@H]2O[C@@H](n3cnc4c(N)ncnc43)[C@H](O)[C@@H]2OP(=O)(O)O)ccc1O; settings: acyl donor, amine acceptor 100 μM (which amine not told), 10 mM MgCl2, Tris-HCl pH 7.4, 30 °C
protein,measurement,setting,value
HvACT (Hordeum vulgare) (protein) MKITVHSSKAVKPEYGACGLAPGCTADVVPLTVLDKANFDTYISVIYAFHAPAPPNAVLEAGLGRALVDYREWAGRLGVDASGGRAILLNDAGARFVEATADVALDSVMPLKPTSEVLSLHPSGDDGPEELMLIQVTRFACGSLVVGFTTQHIVSDGRSTGNFFVAWSQATRGAAIDPVPVHDRASFFHPREPLHVEYEHRGVEFKPCEKAHDVVCGADGDEDEVVVNKVHFSREFISKLKAHASAGAPRPCSTLQCVVAHLWRSMTMARGLDGGETTSVAIAVDGRARMSPQVPDGYTGNVILWARPTTTAGELVTRPVKHAVELISREVARINDGYFKSFIDFANSGAVEKERLVATADAADMVLSPNIEVDSWLRIPFYDMDFGGGRPFFFMPSYLPVEGLLILLPSFLGDGSVDAYVPLFSRDMNTFKNCCYSLD,Km,purified protein [1],483.5 ± 63.2 µM
same,kcat,purified protein [1],0.175 s⁻¹
same,Km,purified protein [2],7.11 ± 2.14 µM
same,kcat,purified protein [2],2.51 s⁻¹
same,kcat/Km,purified protein [2],353000 M⁻¹ s⁻¹
same,Km,purified protein [3],104.9 ± 26.3 µM
same,kcat,purified protein [3],1.04 s⁻¹
same,kcat/Km,purified protein [3],10000 M⁻¹ s⁻¹
same,Km,purified protein [4],161.3 ± 36.5 µM
same,kcat,purified protein [4],0.736 s⁻¹
same,kcat/Km,purified protein [4],5000 M⁻¹ s⁻¹
